T1: TFIIB (UniProt P29055 1-345)
T1 sequence: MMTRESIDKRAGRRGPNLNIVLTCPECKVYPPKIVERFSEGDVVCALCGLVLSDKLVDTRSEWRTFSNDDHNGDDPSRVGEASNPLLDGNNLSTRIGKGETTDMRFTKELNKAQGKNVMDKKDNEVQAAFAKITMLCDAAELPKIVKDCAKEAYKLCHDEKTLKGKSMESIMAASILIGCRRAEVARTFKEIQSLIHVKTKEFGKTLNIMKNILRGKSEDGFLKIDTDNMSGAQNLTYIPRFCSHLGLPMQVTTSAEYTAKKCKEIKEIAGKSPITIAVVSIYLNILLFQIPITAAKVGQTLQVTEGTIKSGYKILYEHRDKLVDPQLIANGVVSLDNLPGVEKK


Biological target: T1, TFIIB
Experiment: EMSA

Row | Binder | binding result
1 | B4-Del5 (structured_RNA) RNA: GGGAGCUAAUGUAGGAUGCUGGGGUAGUCCAGCCCUAGAAUAAGCGCUAGUACUACAAGCUUCUGGAGCUCGGU | binds
2 | MiniB4 (structured_RNA) RNA: GGGAGCUAAUGUAGGAUGCUGGGGUAGUCCAGCCCUAGAAUAAGCGCUAGUACUACAAGCU | binds
3 | B4-Del3 (structured_RNA) RNA: GGGAGAAUUCAACUGCCAUCUAGGCAAAGAGCUAAUGUAGGAUGCUGGGGUAGUCCAGCCCUAGAAUAAGCGCUAGUACUACAAGCU | binds
